Experiments:
[1] = target: L21A variant of HIV-1 gp41 Core (Core^L21A) (HIV-1 (HXB2 numbering named)); test: NMR, 1H-15N HSQC resonance amplitudes of trimer and monomer
[2] = target: L21A variant of HIV-1 gp41 Core (Core^L21A) (HIV-1 (HXB2 numbering named)); test: SEC-MALS
[3] = target: L21A variant of HIV-1 gp41 Core (Core^L21A) (HIV-1 (HXB2 numbering named)); test: NMR, 15N ZZ exchange

Substance: L21A variant of HIV-1 gp41 Core (Core^L21A) (domain or fragment)
- Kd = [M]^3/([T][B]^2) (6HB trimer + 2 bicelles to 3 lipid-bound monomers) [1]: 2.8
- population of the lipid-bound (monomeric) state [1]: 71%
- stoichiometry N [2]: 3
- kex (koff[B]^2 + 3kon[M]^2) [3]: 1.05 s⁻¹
